According to paper PMC4776146, “Distinct phosphorylation sites on the ghrelin receptor, GHSR1a, establish a code that determines the functions of ß-arrestins” (Scientific Reports, 2016):
Each block holds one molecule with its values, some of them ahead of it.

Assays:
Assay in all cases: FRET or BRET; BRET in living HEK 293 cells; eYFP-tagged receptor and Rluc-ß-arrestin co-transfected at a ratio of 4:1; Hanks' balanced salt solution; coelenterazine 2.5 uM for 10 min at 37 °C, then ghrelin for 5 min; concentration response curves for ghrelin; emissions at 535 and 475 nm
[1] = biological target: GHSR1a-TM (triple mutant of Ser362, Ser363 and Thr366 to Ala) fused at its C terminus to eYFP (UniProt Q92847)
Sequence of GHSR1a-TM (triple mutant of Ser362, Ser363 and Thr366 to Ala) fused at its C terminus to eYFP (Q92847 other isoform, or with tags, fused parts or gaps, change not shown): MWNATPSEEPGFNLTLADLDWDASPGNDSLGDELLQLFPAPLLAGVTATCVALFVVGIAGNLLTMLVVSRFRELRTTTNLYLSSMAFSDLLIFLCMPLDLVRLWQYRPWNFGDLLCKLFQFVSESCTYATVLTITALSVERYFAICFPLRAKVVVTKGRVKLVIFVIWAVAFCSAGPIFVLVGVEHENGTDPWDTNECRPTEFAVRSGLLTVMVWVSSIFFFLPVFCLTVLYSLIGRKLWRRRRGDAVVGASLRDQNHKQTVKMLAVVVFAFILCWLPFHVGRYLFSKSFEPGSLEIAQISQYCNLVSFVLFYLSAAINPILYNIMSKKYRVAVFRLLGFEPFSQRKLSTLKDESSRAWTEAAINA

[2] = biological target: GHSR1a-Total (Ser349, Thr350, Ser362, Ser363 and Thr366 substituted by Ala) fused at its C terminus to eYFP (UniProt Q92847)
Sequence of GHSR1a-Total (Ser349, Thr350, Ser362, Ser363 and Thr366 substituted by Ala) fused at its C terminus to eYFP (Q92847 other isoform, or with tags, fused parts or gaps): as the sequence (Q92847 other isoform, or with tags, fused parts or gaps, change not shown) above, with S349A, T350A counted along it

[3] = biological target: T1, GHSR1a-WT fused at its C terminus to enhanced yellow fluorescent protein (eYFP) (UniProt Q92847 1-366); conditions: partners not purified
T1 construct: amplified by PCR with primers that removed the stop codon, subcloned upstream of full-length eYFP in pcDNA3.1; Phosphorylated in cells after ghrelin at Ser349, Thr350, Ser362, Ser363 and Thr366 (mass spectrometry on the EGFP-tagged receptor); also called YFP-GHSR1a-WT; YFP tagged-GHSR1a-WT; source: HEK 293, transiently co-transfected (Lipofectamine 2000), in living cells; not shown: eYFP, …
T1 sequence (Q92847 whole entry, the tested form may be a part): as the sequence (Q92847 other isoform, or with tags, fused parts or gaps, change not shown) above, with A362S, A363S, A366T counted along it

[4] = biological target: T2, GHSR1a-DM (double mutant Thr350Ala, Ser349Ala) fused at its C terminus to eYFP (UniProt Q92847 1-366, Thr350Ala | Ser349Ala); conditions: partners not purified
T2 construct: also called YFP-GHSR1a-DM; source: HEK 293, transiently co-transfected (Lipofectamine 2000), in living cells; not shown: eYFP, C-terminal, kept
T2 sequence (Q92847 whole entry S349A/T350A, the tested form may be a part): as the sequence (Q92847 other isoform, or with tags, fused parts or gaps, change not shown) above, with S349A, T350A, A362S, A363S, A366T counted along it

efficacy of recruitment, percent of GHSR1a-WT response (BRET) (% of GHSR1a-WT response) [1]: 24.6 | pEC50 of ghrelin for ß-arrestin 2 recruitment (BRET) [1]: 6.97 | efficacy of recruitment, percent of GHSR1a-WT response (BRET) (% of GHSR1a-WT response) [2]: 18 | pEC50 of ghrelin for ß-arrestin 2 recruitment (BRET) [2]: 6.04
Molecule: ß-arrestin 2 tagged with Rluc at its C-terminus (from UniProt P32121 1-409) (natural protein)

efficacy of recruitment, percent of GHSR1a-WT response (BRET) (% of GHSR1a-WT response) [1]: 36.8 | pEC50 of ghrelin for ß-arrestin 1 recruitment (BRET) [1]: 7.13 | efficacy of recruitment, percent of GHSR1a-WT response (BRET) (% of GHSR1a-WT response) [2]: 31.8 | pEC50 of ghrelin for ß-arrestin 1 recruitment (BRET) [2]: 6.01 | pEC50 of ghrelin for ß-arrestin 1 recruitment (BRET) [3]: 7.54 | pEC50 of ghrelin for ß-arrestin 1 recruitment (BRET) [4]: 7.1
B1: Renilla luciferase-tagged ß-arrestin 1 (natural protein, UniProt P49407 1-418, looked up)
chain: MGDKGTRVFKKASPNGKLTVYLGKRDFVDHIDLVDPVDGVVLVDPEYLKERRVYVTLTCAFRYGREDLDVLGLTFRKDLFVANVQSFPPAPEDKKPLTRLQERLIKKLGEHAYPFTFEIPPNLPCSVTLQPGPEDTGKACGVDYEVKAFCAENLEEKIHKRNSVRLVIRKVQYAPERPGPQPTAETTRQFLMSDKPLHLEASLDKEIYYHGEPISVNVHVTNNTNKTVKKIKISVRQYADICLFNTAQYKCPVAMEEADDTVAPSSTFCKVYTLTPFLANNREKRGLALDGKLKHEDTNLASSTLLREGANREILGIIVSYKVKVKLVVSRGGLLGDLASSDVAVELPFTLMHPKPKEEPPHREVPENETPVDTNLIELDTNDDDIVFEDFARQRLKGMKDDKEEEEDGTGSPQLNNR
notes: plasmid provided by Prof; Mark Scott (Institut Cochin, Paris); also called Rluc-ß-arrestin 1; source: HEK 293, transiently co-transfected (Lipofectamine 2000), in living cells
